These results are taken from PMC10746170.

In the data set the test system is T1, His6-GacA (Acinetobacter baumannii (strain ATCC 17978?)), ORF:4711fff2.
T1 sequence: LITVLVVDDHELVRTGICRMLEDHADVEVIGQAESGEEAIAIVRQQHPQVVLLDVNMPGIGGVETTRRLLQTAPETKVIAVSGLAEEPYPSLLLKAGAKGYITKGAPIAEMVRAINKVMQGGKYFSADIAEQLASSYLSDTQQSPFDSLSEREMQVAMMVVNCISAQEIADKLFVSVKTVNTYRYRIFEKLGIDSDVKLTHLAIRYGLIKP
Description: EMSA. Conditions: 20 mM Tris pH 8.0, 150 mM NaCl, 10 mM EDTA, 100 ug/mL BSA, 20 mM acetyl phosphate, 10% glycerin, 1 mM DTT; ~10 nM probe; 20 min, room temperature; 6% native …. (A gel shift assay detects complexes by their altered migration in electrophoresis.)

For the sequence “CTCGTCATTATTAAGGCACGAGCTTGAATTAAACTGCACATCTAGTGTCAGTTGCTTATAGTGGCTATTGTCTTAGTATTTTTAAAAATCTGCAATATCTTTTTTTTAAAATTACCTAAGAAAATAAAAATATTTCAGAAAACTTTTTAGTTTTAAAAAATTTATAGTTTCTAATTATAAATAGCTTGCACAAAAAAACCAGCTTTAAAGCTGGTCTATTTTTAAATTATCACGGCGTATGAAGCTGTGTTTCCGTGTACGGACCTATTTCCGTTTCCTGTATTCCTCCGCTTCCGGAAT (double strand) [dotI promoter probe]”, the binding entry is reported as “binds”.

For the sequence “TTCTATAAATAAGAAATAAAGAATTTATTAATGCGTATAGTGCACAGCAAATATTATAAATTAATAAAGGTTGGTTAAAGGTTTGTTTTACAAGTATATGAAATGAATTAAAATTTTTTAATTTTATTTTTACGGTGTAAGCTTGTGATAAATAAAAATTAATAGCTAGAAAACTTATTTAAAACTTTTTAGTCTAATAGCATATTAAATTAAATTGAGCTTTATTATTTATAGCGAAATATATAACACTCGCTGAAACTTGGTTGATTTTTAATAATCAAGATAATAAAGGAAAAGGAT (double strand) [PDC promoter probe]”, the binding result is on record as “binds”.
